Measurements reported in the RNAGym collection of RNA variant scans (doi:10.1073/pnas.2313332121).

B1: TPR t1 (parent)
chain: GACCAAUCUGCCCUCAGAGCUCGAGAACAUCUUCGGAUGCAGAGGAGGCAGGCUUCGGUGGCGCGAUAGCGCCAACGUCCUCAACCUCCAAUGCAUCCCACCACAUGAUGAUGCCUGAAGAGCCUUGGUUUUUUG

Variants of: B1
Experiment: polymerase ribozyme fitness, log enrichment relative to wild type (log ratio); higher = more active; in vitro selection for triplet polymerase activity
Procedure, shortened: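 Streptavidin-bead capture of gel-excised extended constructs, followed by RT-PCR, closed a single triplicate in vitro selection round. That round began by annealing PCR-built, transcribed mutant libraries of each subunit of a heterodimeric triplet polymerase ribozyme with a biotinylated primer, the partner subunit and triplets, then incubating them frozen at −7 °C. After Illumina sequencing of inputs and outputs, genotypes needed ≥10 input reads and ≥1 read per output. Fitness is the base-2 logarithm of genotype enrichment over wild-type enrichment, using inverse-variance-weighted replicate averages.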

Variant | polymerase ribozyme fitness (log ratio)
U21A A119U | -0.295
C20U U55A C79U G120A | -1.1
C20G G47A G57U | -5.83
C20U G52A | -0.737
C20A G60A G113C | -5.06
C20A U32A G93C | -4.21
U21A A43U C72A | -2.36
C20U G60U | -1.52
C20U G60A | -1.03
U21G C70U G93A | -3.75
U21G U87C C114U | -1.41
C22A C72A U106A A118G | -3.71
C22G C73A G93A | -4.3
C20A A43C C94U | -4.19
C20U G61C A111G | -5.2
U21C G57A C72U G77C U96A A121U U125A | -3.06
U21C G52U G60C | -1.61
C20G C97A U116C C123G | -5.78
C20A C124A | -0.989
C20U G35C G57U C80U U129G | -5.92
U21A A24G C70U | -2.2

Variant | polymerase ribozyme fitness (log ratio)
C20U C31G A66U C73U C98A G110A | -6.9
C20U C28U G45C | -4.64
C20U U32C U106A | -2.46
C22A A26U | -4.2
C20A G42U | -4
U21A U81A C101A G113C | -4.64
U21A C123G G128C | -1.09
U21A C22A C40U C73U C101A U133G | -5.39
C20U C72G C102A | -3.19
G19U G71A A118G | -6.34
C22A G44C A46U C101A A121C | -4.64
C20G U112C | -2.48
G19U C64U C124U | -2.27
C22A G60C C73U | -5.64
C20A G71A | -3.79
C20U G52A C124U | 0.255
C20A C86G C114U C115U | -5.24
C22A C72G A83G C115A | -5.56
C20A C56U U96G | -3.51
U21G A121U | 0.0323
C20U G117U | -3.53

Variant | polymerase ribozyme fitness (log ratio)
C20G U33G C34G G44A A46U C98G G110C G113C | -6.24
C22A A37U | -5.66
C22G C64U U112G | -2.89
C20U A29G G63A C80U | -4.01
C20G G60A G120C | -4.56
C20U A41G G60C | -2.04
C20A U59A U78A G117A | -4.88
U21A A27C | -3.89
C20A G110A | -4.21
G19U C80A G113A | -5
C22A G51A G71C A111C | -6.96
C20A C88A | -2.94
C20U G63A U96G | -3.22
U21A C56A | -0.423
U21A C56U | -0.334
U21G G48C | -1.56
U21G A37G A41U G113U | -2.41
C20U A27C G117U | -6
C20A G63U C85G | -5.08
U21G C64U G77A G93U | -3.27
C20U G61U | -1.41

Variant | polymerase ribozyme fitness (log ratio)
C22A A83G U96A C114A | -5.87
C20U A43G U112C | -0.81
C20A U96A C102G C114A | -5.84
G19U G58C | -4.22
C20A C73U | -2.08
C22A C88U | -4.66
C20A A50U U126C | -4.92
C20U C53G | -1.28
C20G C40U G42C G48U U109A | -4.15
C20G C62U G113C | -1.25
C20U A41C | -3.04
C20U G47U C82G | -4.12
C20U G51U G71A | -6.53
U21G G93A C114U | -3.41
U21C G69U C89U | -0.984
U21G G71U G110U U112A | -1.83
C20G C76U G93C A95G C124A | -4.72
U21A C72G C86G | -2.59
C20U C72U C82U C115A | -1.91
U21G A37G A41U U78C G113U | -2.05
C20U C40G A46C G60U A75C | -4.1
